Target: OsMADS57 (Oryza sativa) (UniProt Q6Z6W2)
Assay: SPR
Details: SPR (Biacore 3000, SA chip): 10 mM Hepes pH 7.9, 50 mM KCl, 1 mM EDTA, 0.5 mM DTT, 5 mM MgCl2, 10% glycerol, 0.005% P20, 25 or 4 C, protein 0.15-4.80 uM, EMSA: …

OsMADS57 (Oryza sativa), sequence (Q6Z6W2 whole entry): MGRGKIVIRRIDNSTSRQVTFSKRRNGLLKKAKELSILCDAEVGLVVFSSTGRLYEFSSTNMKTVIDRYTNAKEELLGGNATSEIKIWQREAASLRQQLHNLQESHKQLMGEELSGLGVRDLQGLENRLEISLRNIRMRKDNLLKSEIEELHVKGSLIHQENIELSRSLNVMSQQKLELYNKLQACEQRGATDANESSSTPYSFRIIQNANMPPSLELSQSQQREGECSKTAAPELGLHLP

Sequence: TTAACTTTAAAAAGTTAGTTAACTTTAAAAAGTTAGTTAACTTTAAAAAGTTAG (double strand) [WRKY94S2]
- Kd (25 C): 1200 nM
- Kd: 700 nM
